According to article PMC5181381:

Experiments:
[1] = target: non-lipidated Gβ1γ2 dimer (UniProt P62873); experiment: SEC; purified mini-Gs399 mixed with non-lipidated Gβ1γ2 dimer in an equimolar ratio, on ice 4 h; Superdex-200 10/300; 10 mM HEPES pH 7.5, 100 mM NaCl, 1 mM MgCl2, 1 μM GDP, 0.1 mM TCEP
[2] = target: truncated form of turkey β1-adrenergic receptor, β1AR^∆NC (turkey) (UniProt P07700)
[3] = target: truncated form of turkey β1-adrenergic receptor, β1AR^∆NC (turkey) (UniProt P07700); experiment: SEC; purified β1AR^∆NC in LMNG mixed with a 1.2-fold molar excess of mini-Gs393, on ice 4 h; Superdex-200 10/300; 10 mM HEPES pH 7.5, 100 mM NaCl, 1 mM MgCl2, 1 μM ascorbic acid, 1 μM isoprenaline, 0.002% LMNG; peak fractions analysed by SDS-PAGE
[4] = target: truncated form of turkey β1-adrenergic receptor, β1AR^∆NC (turkey) (UniProt P07700); remark: listed apart in the source
[5] = target: minimally thermostabilised turkey β1AR construct β1AR-84 (turkey) (UniProt P07700)

stoichiometry N [1] | Apparent Tm of β1AR^∆NC in DDM, measured by ^3H-NE binding (°C) [2] | stoichiometry N [3] | fold shift of the isoprenaline affinity of membrane-embedded β1AR^∆NC (competition with 3H-DHA, 25 μM binding partner, 20°C) [4] | fold increase of the isoprenaline affinity of membrane-embedded β1AR-84 (competition with 3H-DHA, 25 μM binding partner, 20°C) [5] | Substance
1 |  |  |  |  | mini-Gs399 (domain or fragment)
 | 34.1 °C | 1 |  |  | Mini-Gs393 (final mini-Gs construct) (domain or fragment)
 | 35.8 °C |  | 6 fold | 162 fold | soluble heterotrimeric Gs in the presence of the nanobody Nb35 (from UniProt P63092 1-394; P62873 1-340; P59768 1-71) (complex)
